The values that follow come from patent US20250325680A1, “HIGH-PERMEABILITY PROTEIN OR POLYPEPTIDE CONJUGATE AND USE THEREOF” (Hangzhou Tito Biotechnology Partnership Enterprise ( …, priority 2023, published 2025).

Data set [1] in a line: Intraocular permeation experiment after eye-dropping administration. It counts as in vivo. Particulars: mouse, 4 h, laser confocal imaging of eyeball sections. The method, then:
6.6 mg of BSA ([…]) was dissolved in 1 mL of PBS at pH 7.4, 66 μg of a fluorescent dye Cy5-NHS was added, and stirring was conducted for 6 h at room temperature. Ultrafiltration-washing was repeated multiple times to produce fluorescently-labeled ^Cy5BSA. The conjugate ^Cy5BSA-OPDMA and other protein conjugates were labeled by the same method.
Upper and lower eyelids of each mouse were gently pulled open with a cotton swab. Solutions of ^Cy5BSA and ^Cy5BSA-OPDMA in PBS each were dropped to a conjunctival sac of a mouse, and a few seconds later, eyelids were slowly closed. At 4 h after the eye-dropping administration, eyeballs were immediately collected, washed three times with PBS, fixed overnight in an FAS eyeball fixative solution, and then transferred to a 30% sucrose solution for dehydration. When sank to a bottom of the solution, eyeballs were carefully taken out, embedded with an optimal cutting temperature (OCT) embedding medium, and sectioned by a freezing microtome to produce 10 μm-thick eyeball sections. The eyeball sections were stained with a 4′,6-diamidino-2-phenylindole (DAPI) dye, and finally the fluorescence distributions of each solution in eyeballs and retinas were observed under a laser scanning confocal microscope. The fluorescence distribution inside a retina of a mouse eyeball was analyzed with Image J.

A further data set deals with CT26 tumor spheres. Kind of data set: Permeation in multicellular tumor spheres. It is filed as cell-based. Particulars: BSA 20 μg/mL, 2 h incubation. Here is the method: The permeability of albumin and a conjugate BSA-OPDMA thereof was verified with multicellular tumor spheres. 1.0 mL of DMEM and the prepared CT26 tumor spheres were added to a confocal imaging dish, and then 20 μL of ^Cy5BSA-OPDMA or ^Cy5BSA was added (where a concentration of BSA was 20 μg/mL). After being incubated for 2 h, tumor spheres were subjected to laser scanning confocal microscopy imaging every 20 μm along a Z-axis. […] Moreover, the more the OPDMA bonded, the stronger the promotion on the permeability of BSA. […] OPDMA with a molecular weight of 10 k could more efficiently promote the penetration of ^Cy5BSA than OPDMA with a molecular weight of 5 k. This conclusion was further confirmed by the quantitative fluorescence data in FIG. 13.

Data set [2] is described as follows: Skin permeation experiment. It counts as in vivo, C57BL/6 mice. To be noted: mouse dorsal skin, 4 h after administration, laser confocal. Here is the method:
C57BL/6 mice each with a body weight of 20 g were selected and randomly divided into four groups. The hair on the back of each mouse was removed with a depilatory cream. After 24 h of raising, a silicone diffusion cell was fixed on the back, and Cy5-labeled ^Cy5BSA and ^Cy5BSA-OPDMA were added at equal amounts. 4 h after the administration, the dorsal skin of each mouse was carefully collected, rinsed 3 times with PBS, and sectioned by a freezing microtome to produce 20 μm-thick skin sections. A skin permeation effect of each solution was observed under a laser scanning confocal microscope.

The next data set has as its system laser-induced CNV model. The data set is described as follows: Laser-induced choroidal neovascularization (CNV) model, eye drops. It is filed as in vivo, C57BL/6J mice. Particulars: eye drops 2 μL, 10 mg/ml of aflibercept, four times a day for 7 d, day 7. From the text: 40 female C57BL/6J mice at 6 to 8 weeks were selected, and the anterior segments of both eyes and the fundus were examined to be normal before the experiment. An unilateral eye of each mouse was selected and subjected to laser photocoagulation to establish a CNV model, where a corresponding contralateral eye was not treated. Then treated mice were randomly divided into a PBS group, an aflibercept-OPDMA conjugate group, an OPDMA+aflibercept mixture group, and an aflibercept intravitreal injection group. Immediately after the laser photocoagulation, mice in each group were administered with eye drops at a dose of (2 μL, 10 mg/ml of aflibercept) four times a day consecutively for 7 d. For the injection group, a dose was 10 μg/mouse, and the injection was conducted merely once during the experiment. After laser photocoagulation, on day 7 post-modeling, choroidal flat mounts were prepared from the experimental eyes. The flat mounts were subjected to antibody staining using IB4 and imaged under a fluorescence microscope. Thee neovascularization area was measured using image J software. These indices were used to assess the treatment efficacy of each group.

As to “^Cy5BSA-OPDMA: Cy5-labeled conjugate of BSA with OPDMA; chain number and weight not stated in the text”, the “intraocular permeation (fluorescence distribution in eyeballs and retinas)” value in data set [1] was “could penetrate into intraocular cells, especially a retina in a posterior segment of an eye”. Further, the “permeation in tumor spheres (fluorescence)” value in the data set with CT26 tumor spheres was “presented a strong red fluorescence within tumor spheres”. For the same substance, in data set [2], the “skin permeation effect (fluorescence in skin sections)” value is recorded as “the fluorescence could penetrate into the deep skin”.
Taken in the same sequence, the figures for “^Cy5BSA: BSA fluorescently labeled with Cy5-NHS [reference compound]” were “only adhered to a surface of an eyeball”, “could only reach the edges of tumor spheres” and “faint red fluorescence was observed merely in a surface layer of the skin”.
As to “aflibercept: the protein (aflibercept) itself”, the “skin permeation effect (fluorescence in skin sections)” value in data set [2] is “cannot permeate into the skin”.
In the case of “aflibercept-OPDMA: conjugate of aflibercept with tertiary amine oxide polymer OPDMA”, the “intraocular permeation (fluorescence distribution in eyeballs and retinas)” value in data set [1] is listed as “had a similar intraocular permeation ability”. Moreover, the results for the “therapeutic effect on CNV (neovascularization area)” value in the data set with laser-induced CNV model and in the data set with laser-induced CNV model (listed as aflibercept-OPDMA conjugate) were “could indeed exert a therapeutic effect after being dropped to eyes” and “prominent therapeutic effect”, respectively.
